Source: patent US20260209386A1 (MYTHIC THERAPEUTICS, published 2026)
Numbering of substitutions follows the chain as printed.

T1: Human PTK7 Protein, His Tag, Acro Biosystems (human, UniProt Q13308 31-704)
T1 construct: Bought recombinant protein; also called CCK4; not shown: His tag
T1 sequence: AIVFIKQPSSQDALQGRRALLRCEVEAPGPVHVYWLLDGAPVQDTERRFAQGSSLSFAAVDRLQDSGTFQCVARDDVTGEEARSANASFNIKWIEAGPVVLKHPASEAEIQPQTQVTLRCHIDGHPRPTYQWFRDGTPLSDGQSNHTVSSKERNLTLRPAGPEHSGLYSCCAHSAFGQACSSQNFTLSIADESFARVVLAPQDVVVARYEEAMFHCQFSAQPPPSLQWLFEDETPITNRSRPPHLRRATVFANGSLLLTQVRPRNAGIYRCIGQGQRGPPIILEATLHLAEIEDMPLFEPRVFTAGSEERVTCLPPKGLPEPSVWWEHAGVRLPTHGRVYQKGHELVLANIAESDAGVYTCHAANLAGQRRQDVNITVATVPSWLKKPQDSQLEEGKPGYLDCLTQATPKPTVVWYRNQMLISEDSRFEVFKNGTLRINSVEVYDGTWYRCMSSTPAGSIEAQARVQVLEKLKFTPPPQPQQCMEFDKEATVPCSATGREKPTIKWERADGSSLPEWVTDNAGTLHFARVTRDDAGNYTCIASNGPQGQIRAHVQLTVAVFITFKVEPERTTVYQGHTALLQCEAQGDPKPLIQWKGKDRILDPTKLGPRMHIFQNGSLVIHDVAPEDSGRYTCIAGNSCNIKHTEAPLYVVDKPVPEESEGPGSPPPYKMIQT

T2: Human PTK7 Protein, His Tag (Acro Biosystems) (human, UniProt Q13308 31-704)
T2 construct: Bought recombinant protein; also called CCK4; tyrosine-protein kinase-like 7; not shown: His tag
T2 sequence: T1 sequence

T3: Recombinant human CCK4/PTK7 Protein (His Tag), Sino Biological 19399-H08H (human, UniProt Q13308 31-704)
T3 construct: bought protein; not shown: His tag
T3 sequence: T1 sequence

T4: Human PTK7 Protein, His Tag (Acro Biosystems) (human, UniProt Q13308 31-704)
T4 construct: Bought His-tagged protein; also called CCK4; not shown: His tag
T4 sequence: T1 sequence

B1: MYT11258 (antibody, V domains shown)
VH: EVQLVESGGGLVQPGGSLRLSCTASGIDLHRYSMGWVRQAPGKGLEWVGIISYGGSTYYASWAKGRFTISRDTSKNTVYLQMNSLRAEDTAVYFCARVGYPGYSGYGYAFDAFDPWGQGTLVTVSS
VL: EIVMTQSPSTLSASVGDRVIITCQSSKSVYNDNWLSWYQQKPGKAPKLLIYGASTLASGVPSRFSGSGSGAEFTLTISSLQPDDFATYYCAGGYSSSSDNGFGQGTKLTVL
notes: MYT9792 variant, His at VH 30 (H1 05)
B2: MYT11285 (antibody, V domains shown)
VH: B1 VH with H30S, P101H
VL: B1 VL
notes: MYT9792 variant, His at VH 101 (H3 06)
B3: MYT11263 (antibody, V domains shown)
VH: B1 VH with H30S, G35H
VL: B1 VL
notes: MYT9792 variant, His at VH 35 (H1 10)
B4: MYT11309 (antibody, V domains shown)
VH: B1 VH with H30S
VL: B1 VL with V29H
notes: MYT9792 variant, His at VL 29 (L1 06)
B5: MYT11279 (antibody, V domains shown)
VH: B1 VH with H30S, G65H
VL: B1 VL
notes: MYT9792 variant, His at VH 65 (H2 16)
B6: MYT11289 (antibody, V domains shown)
VH: B1 VH with H30S, G105H
VL: B1 VL
B7: MYT11267 (antibody, V domains shown)
VH: B1 VH with H30S, Y53H
VL: B1 VL
notes: MYT9792 variant, His at VH 53 (H2 04)
B8: MYT11272 (antibody, V domains shown)
VH: B1 VH with H30S, Y58H
VL: B1 VL
notes: MYT9792 variant, His at VH 58 (H2 09)
B9: MYT11322 (antibody, V domains shown)
VH: B1 VH with H30S
VL: B1 VL with A57H
notes: MYT9792 variant, His at VL 57 (L2 06)
B10: MYT11394 (antibody, V domains shown)
VH: EVQLVESGGGLVQPGGSLRLSCTASGIDLSNYAVIWVRQAPGKGLEWVGIIYTYDTTYYANWAKGRFTISRDTSKNTVYLQMNSLRAEDTAVYFCARSFSDISDLIKLWGQGTLVTVSS
VL: EIVMTQSPSTLSASVGDRVIITCQASQSLYNNKDHAWYQQKPGKAPKLLIYEASKLASGVPSRFSGSGSGAEFTLTISSLQPDDFATYYCLGEFSCGSGDCLAFGQGTKLTVL
notes: MYT9797 LC variant; captured via anti-human Fc
B11: MYT11398 (antibody, V domains shown)
VH: B10 VH
VL: B10 VL with H35L, S54H
notes: as for B10
B12: MYT11417 (antibody, V domains shown)
VH: B10 VH
VL: B10 VL with D34A, H35L
notes: MYT9797 LC alanine variant; captured via anti-human Fc
B13: MYT11409 (antibody, V domains shown)
VH: B10 VH
VL: B10 VL with H35L, S98H
notes: as for B10
B14: MYT11410 (antibody, V domains shown)
VH: B10 VH
VL: B10 VL with H35L, G99H
notes: as for B10
B15: MYT11396 (antibody, V domains shown)
VH: B10 VH
VL: B10 VL with H35L, E52H
notes: as for B10
B16: MYT7963 (antibody, V domains shown)
VH: EVQLVQSGGGLVHPGGSLRLSCAGSGFTHSTYLMYWVRQAPGKTLEWVSAIGSGGDTYYADSVKGRFTISRDNAKNSLYLQMNSLRAEDMAVYYCARGLGYWGQGTLVTVSS
VL: not shown
notes: IgG
B17: MYT8003 (antibody, V domains shown)
VH: B16 VH with H29F
VL: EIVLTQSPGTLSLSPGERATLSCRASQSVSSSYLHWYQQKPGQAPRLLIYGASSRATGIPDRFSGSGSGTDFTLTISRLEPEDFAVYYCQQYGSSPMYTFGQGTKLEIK
notes: IgG
B18: MYT7986 (antibody, V domains shown)
VH: B16 VH with H29F, A96H
VL: not shown
notes: IgG
B19: MYT7987 (antibody, V domains shown)
VH: B16 VH with H29F, R97H
VL: not shown
notes: IgG
B20: MYT7973 (antibody, V domains shown)
VH: B16 VH with H29F, S53H
VL: not shown
notes: IgG
B21: MYT8016 (antibody, V domains shown)
VH: B16 VH with H29F
VL: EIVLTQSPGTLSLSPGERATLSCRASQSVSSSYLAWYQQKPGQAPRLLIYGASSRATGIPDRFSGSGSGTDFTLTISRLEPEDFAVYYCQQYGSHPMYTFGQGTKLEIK
notes: IgG
B22: MYT8019 (antibody, V domains shown)
VH: B16 VH with H29F
VL: not shown
notes: IgG
B23: MYT7989 (antibody, V domains shown)
VH: B16 VH with H29F, L99H
VL: not shown
notes: IgG
B24: MYT8017 (antibody, V domains shown)
VH: B16 VH with H29F
VL: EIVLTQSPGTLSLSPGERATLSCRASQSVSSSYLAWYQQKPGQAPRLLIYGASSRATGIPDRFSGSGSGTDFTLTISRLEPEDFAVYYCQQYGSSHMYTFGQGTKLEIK
notes: IgG
B25: MYT7972 (antibody, V domains shown)
VH: B16 VH with H29F, G52H
VL: not shown
notes: IgG
B26: MYT7988 (antibody, V domains shown)
VH: B16 VH with H29F, G98H
VL: not shown
notes: IgG
B27: MYT7970 (antibody, V domains shown)
VH: B16 VH with H29F, A50H
VL: not shown
notes: IgG
B28: MYT7858 (antibody, V domains shown)
VH: QVQLVQSGPEVKKPGASVKVSCKASGYTFTDYAVHWVRQAPGKRLEWIGVISTYNDYTYNNQDFKGRVTMTRDTSASTAYMELSRLRSEDTAVYYCARGNSYFYALDYWGQGTSVTVSS
VL: EIVLTQSPATLSLSPGERATLSCRAHESVDSYGKSFMAWYQQKPGQAPRLLIYRASNLESGIPARFSGSGSGTDFTLTISSLEPEDFAVYYCQQSNEDPWTFGGGTKLEIK
notes: IgG
B29: MYT7862 (antibody, V domains shown)
VH: B28 VH
VL: B28 VL with H26S, S31H, A38H, S60H
notes: IgG
B30: MYT11093 (antibody, V domains shown)
VH: EVQLVESGGGLVQPGGSLRLSCTASGLSLSSYWMSWVRQAPGKGLEWVGVISAGGNTYYANWAKGRFTISRDTSKNTVYLQMNSLRAEDTAVYFCARGDDGYTNAAYVSNLWGQGTLVTVSS
VL: EIVMTQSPSTLSASVGDRVIITCQASQSISSWLSWYQQKPGKAPKLLIYKASTLASGVPSRFSGSGSGAEFTLTISSLQPDDFATYYCQSYHDSTTIAFGQGTKLTVL
notes: MYT9361 LC variant

Each binder was assayed against T1, Human PTK7 Protein, His Tag, Acro … (assay: BLI, anti-human Fc capture, 50 nM PTK7; 1 = pH dependent binding relative to parent).

binding result	Binder
binds	B1
binds	B2
binds	B3
binds	B4
binds	B5
binds	B6
binds	B7
binds	B8
binds	B9

What follows are binders tested against T2, Human PTK7 Protein, His Tag (Acro …) (assay: BLI, antibody on anti-human Fc sensor, 50 nM PTK7 at pH 7.4, dissociation at pH 7.4 or 5.4; 1 = pH dependent binding relative to parent).

binding result	Binder
binds	B10
binds	B11
binds	B12
binds	B13
binds	B14
binds	B15

Each binder was assayed against T3, Recombinant human CCK4/PTK7 Protein … (assay: BLI, antibody on anti-human Fc sensor).

binding result	Binder
no binding (tested: 50 nM PTK7)	B16
no binding (tested: 50 nM PTK7)	B17
no binding (tested: 50 nM PTK7)	B18
no binding (tested: 50 nM PTK7)	B19
no binding (tested: 50 nM PTK7)	B20
no binding (tested: 50 nM PTK7)	B21
no binding (tested: 50 nM PTK7)	B22
no binding (tested: 50 nM PTK7)	B23
no binding (tested: 50 nM PTK7)	B24
no binding (tested: 50 nM PTK7)	B25
no binding (tested: 50 nM PTK7)	B26
no binding (tested: 50 nM PTK7)	B27
no binding (tested: 50 nM PTK7)	B28
no binding (tested: 50 nM PTK7)	B29

These binders were tested against T4, Human PTK7 Protein, His Tag (Acro …) (assay: BLI (Octet), antibody on anti-human Fc sensor, 50 nM PTK7; grade 1 = pH dependent binding relative to parent).

binding result	Binder
binds	B30
